Changes are numbered by the printed parent chain. In names and notes the source's numbering stands.
B1: mAb14: anti-IL-11Rα antibody; VH SEQ ID NO: 219, VL SEQ ID NO: 220; human IgG4 (S228P), kappa light chain (antibody, V domains shown)
VH: EVQLLESGGGLVQPGGSLRLSCAASGFTFSWYSMTWVRQAPGKGLEWVSSIVPYGDLTQYAESVKGRFTISRDNSKNTLYLQMNSLRAEDTAVYYCAKGPGWGSFDLWGRGTLVTVSS
VL: DIQMTQSPSSLSASVGDRVTITCQASQDINNYLNWYQQKPGKAPKLLIYDASNLQTGVPSRFSGSGSGTDFTFTISSLQPEDIATYYCQQHESQSPTFGPGTKVDIK
modifications: human IgG4 S228P and kappa constant regions; mAb14 VH Chain; mAb14 VL Chain
notes: anti-IL-11Rα antibody; human IgG4 (S228P), kappa light chain
B2: mAb12: anti-IL-11Rα antibody; VH SEQ ID NO: 215, VL SEQ ID NO: 216; human IgG4 (S228P), kappa light chain (antibody, V domains shown)
VH: B1 VH with E62D, G103Y
VL: B1 VL
modifications: human IgG4 S228P and kappa constant regions; mAb12 VH Chain; mAb12 VL Chain
notes: as for B1
B3: mAb10: anti-IL-11Rα antibody; VH SEQ ID NO: 211, VL SEQ ID NO: 212; human IgG4 (S228P), kappa light chain (antibody, V domains shown)
VH: B1 VH with P53A, E62D
VL: B1 VL
modifications: human IgG4 S228P and kappa constant regions; mAb10 VH Chain; mAb10 VL Chain
notes: as for B1
B4: mAb15: anti-IL-11Rα antibody; VH SEQ ID NO: 221, VL SEQ ID NO: 222; human IgG4 (S228P), kappa light chain (antibody, V domains shown)
VH: B1 VH with E62D
VL: B1 VL with S93T, S95T
modifications: human IgG4 S228P and kappa constant regions; mAb15 VH Chain; mAb15 VL Chain
notes: as for B1
B5: mAb6: anti-IL-11Rα antibody; VH SEQ ID NO: 203, VL SEQ ID NO: 204; human IgG4 (S228P), kappa light chain (antibody, V domains shown)
VH: B1 VH with E62D
VL: B1 VL with S93F
modifications: human IgG4 S228P and kappa constant regions; mAb6 VH Chain; mAb6 VL Chain
notes: as for B1
B6: mAb9: anti-IL-11Rα antibody; VH SEQ ID NO: 209, VL SEQ ID NO: 210; human IgG4 (S228P), kappa light chain (antibody, V domains shown)
VH: B1 VH with S50G, E62D
VL: B1 VL
modifications: human IgG4 and kappa constant regions; mAb9 VH Chain; mAb9 VL Chain
notes: as for B1
B7: mAb7: anti-IL-11Rα antibody; VH SEQ ID NO: 205, VL SEQ ID NO: 206; human IgG4 (S228P), kappa light chain (antibody, V domains shown)
VH: B1 VH with W31N, S33A, T35S, E62D
VL: B1 VL
modifications: human IgG4 S228P and kappa constant regions; mAb7 VH Chain; mAb7 VL Chain
notes: as for B1
B8: mAb13: anti-IL-11Rα antibody; VH SEQ ID NO: 217, VL SEQ ID NO: 218; human IgG4 (S228P), kappa light chain (antibody, V domains shown)
VH: B1 VH with E62D, G99P, P100E, G101D, S104R
VL: B1 VL
modifications: human IgG4 S228P and kappa constant regions; mAb13 VH Chain; mAb13 VL Chain
notes: as for B1
B9: mAb8: anti-IL-11Rα antibody; VH SEQ ID NO: 207, VL SEQ ID NO: 208; human IgG4 (S228P), kappa light chain (antibody, V domains shown)
VH: B1 VH with W31S, S33A, T35S, E62D
VL: B1 VL
modifications: human IgG4 and kappa constant regions; mAb8 VH Chain; mAb8 VL Chain
notes: as for B1
B10: mAb21 (antibody, human IgG4, V domains shown)
VH: B1 VH with W31H, E62D
VL: B1 VL
notes: Expressed as human IgG4 (S228P EU)
B11: mAb29 (antibody, human IgG4, V domains shown)
VH: B1 VH with W31S, E62D
VL: B1 VL
notes: as for B10
B12: mAb23 (antibody, human IgG4, V domains shown)
VH: B1 VH with W31K, E62D
VL: B1 VL
notes: as for B10
B13: mAb31 (antibody, human IgG4, V domains shown)
VH: B1 VH with W31V, E62D
VL: B1 VL
notes: as for B10

Tested on: IL-11 signaling in STAT3 Reporter (Luciferase)—HEK293 cell line
Experiment: Cell-based STAT3 reporter (luciferase) assay for inhibiting IL-11 signaling
Set-up: species or system human
Settings: compared with TS7 and 8E2
Description: Further testing of the lead mAbs was carried out using a cell-based reporter assay. IL-11 is reported to signal through the STAT3 and ERK pathways. Therefore, a STAT3 reporter cell line in which firefly luciferase gene expression is driven by STAT3 response elements located upstream of a minimal TATA promoter was selected to analyze mAb functional activity. In these cells, IL-11 can activate the endogenous STAT3 allowing it to bind to the STAT3 response elements, inducing transcription of the luciferase reporter gene and resulting in readily detectable luciferase expression. Antibodies to IL-11R which block IL-11 signaling should inhibit expression of IL-11 driven luciferase in these cells.
The STAT3 Reporter (Luciferase)—HEK293 cell line (BPS Bioscience, catalog #79800-P) was grown, passaged, and assayed as per manufacturer's protocols. Cells were added at 25,000 cells per well in a 96-well microtiter dish and incubated at 37° C. for 30-45 min. in 5% CO2 humidified air. Anti-IL-11R mAbs were added as a 3-fold dilution series in duplicate columns or rows, and plates were returned to the incubator for an additional 1 h at 37° C. after which 40 ng/mL IL-11 was added to each well to initiate the signal transduction cascade and luciferase production. Plates were incubated for 18-24 hours at 37° C. and luciferase was detected using a One-Step Luciferase Assay System (BPS Bioscience, cat. no. 60690-1) as per manufacturer's instructions.

| Molecule | relative potency at inhibiting IL-11 signaling (in words) |
| --- | --- |
| B1 | comparable in potency to TS7 |
| B2 | comparable in potency to TS7 |
| B3 | less potent than TS7 |
| B4 | comparable in potency to TS7 |
| B5 | variable |
| B6 | more potent at inhibiting IL-11 signaling than either of TS7 or 8E2 |
| B7 | less potent than TS7 |
| B8 | more potent at inhibiting IL-11 signaling than either of TS7 or 8E2 |
| B9 | less potent than TS7 |

Molecular target: T1, human IL-11Rα (human, UniProt Q14626 23-363, limits assumed)
T1 construct: Protein coated on ELISA plates and used in solution for BLI; also called hIL-11Rα; hIL-11R
T1 sequence: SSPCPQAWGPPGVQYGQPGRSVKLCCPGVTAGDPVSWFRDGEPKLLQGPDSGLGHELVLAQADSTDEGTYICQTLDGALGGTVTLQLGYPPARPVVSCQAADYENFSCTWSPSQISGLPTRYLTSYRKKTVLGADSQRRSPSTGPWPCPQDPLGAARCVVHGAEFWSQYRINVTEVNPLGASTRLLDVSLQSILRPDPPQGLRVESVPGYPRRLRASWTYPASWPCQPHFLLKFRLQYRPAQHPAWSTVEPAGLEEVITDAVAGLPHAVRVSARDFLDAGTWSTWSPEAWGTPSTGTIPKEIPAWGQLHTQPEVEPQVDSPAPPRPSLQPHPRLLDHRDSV
Experiment: BLI (Octet RED96e), mAb on anti-human constant domain (AHC) biosensors, hIL-11R in solution
Settings: not given
Excerpt: A further series of antibodies were designed in which the residue at Kabat position 31 of the heavy chain was varied (mAbs 16-32). In this case an alternate biolayer interferometry assay was used to initially rank the antibodies compared to mAb5, the closest relative in sequence to mAbs 16-32. MAbs were loaded onto anti-human constant domain (AHC) biosensors (FortdBio) in 10× kinetics buffer consisting of PBS, 0.1% BSA, 0.02% Tween 20 for 120 s to achieve a spectral shift value of 0.8 to 1.2 nm. Association was carried out in the presence of 2-fold dilution series of hIL-1 IR and was allowed to proceed for 120 s. Dilution series started 10 nM. The dissociation in 10× kinetics buffer for 1200 s. Binding kinetic measurements were taken on an Octet RED96e instrument.

| Molecule | Kd [nM] | kon [M⁻¹ s⁻¹] | koff [s⁻¹] |
| --- | --- | --- | --- |
| B10 | < 0.03 | 750000 |  |
| B11 | 0.03 | 610000 | 1.8e-05 |
| B12 | < 0.03 | 720000 |  |
| B13 | < 0.03 | 690000 |  |

Molecular target: T2, hIL-11Rα (Homo sapiens, UniProt Q14626)
T2 sequence (Q14626 23-422): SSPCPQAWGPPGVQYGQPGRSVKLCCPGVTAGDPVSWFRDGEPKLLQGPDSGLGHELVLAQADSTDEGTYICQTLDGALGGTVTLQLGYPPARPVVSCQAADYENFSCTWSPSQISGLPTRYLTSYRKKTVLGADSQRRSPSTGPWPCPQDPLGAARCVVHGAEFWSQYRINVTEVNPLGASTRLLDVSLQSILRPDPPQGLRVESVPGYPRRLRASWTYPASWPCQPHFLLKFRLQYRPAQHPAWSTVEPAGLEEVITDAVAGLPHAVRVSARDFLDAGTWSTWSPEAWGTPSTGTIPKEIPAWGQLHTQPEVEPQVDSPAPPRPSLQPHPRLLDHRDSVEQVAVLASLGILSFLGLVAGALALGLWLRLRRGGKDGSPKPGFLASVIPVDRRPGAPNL
Experiment: Kinetic binding analysis by biolayer interferometry (protein G biosensors, Octet RED96e)
Settings: beyond the ability of the instrument to determine an accurate off-rate (kd)
Description: Association was carried out in the presence of a 2-fold dilution series of hIL-11Rα and was allowed to proceed for 120 seconds; dissociation was measured for 300 to 1200 seconds.

| Molecule | binding affinity (in words) |
| --- | --- |
| B1 | very high binding affinity |
| B2 | very high binding affinity |
| B4 | very high binding affinity |
| B5 | very high binding affinity |
| B6 | very high binding affinity |
| B7 | very high binding affinity |
| B8 | very high binding affinity |
| B9 | very high binding affinity |

Same assay, conditions: protein G biosensors; association 120 seconds

| Molecule | ka [M⁻¹ s⁻¹] |
| --- | --- |
| B1 | 33700 |
| B2 | 58100 |
| B3 | 840000 |
| B4 | 84000 |
| B5 | 800000 |
| B6 | 62200 |
| B7 | 63500 |
| B8 | 66700 |
| B9 | 65100 |

Same assay, conditions: protein G biosensors; dissociation 300 to 1200 seconds

| Molecule | kd [s⁻¹] |
| --- | --- |
| B1 | <1e-07 |
| B2 | <1e-07 |
| B3 | 0.000416 |
| B4 | <1e-07 |
| B5 | <1e-07 |
| B6 | <1e-07 |
| B7 | <1e-07 |
| B8 | <1e-07 |
| B9 | <1e-07 |

Source: patent US20240425606A1, “ANTI-IL-11RA ANTIBODIES” (Lassen Therapeutics 1, Inc., priority 2021, published 2024)
